# Data as given in patent US20240109974A1 (SHANDONG SIMCERE BIOPHARMACEUTICAL, published 2024).
# Residue numbers refer to the chain shown, from its start.
# T1: human TNFR2 (Novoprotein, Cat #C830) (human, UniProt P20333 23-257, limits assumed)
# T1 construct: construct not described; also called human TNFR2 protein
# T1 sequence (looked up): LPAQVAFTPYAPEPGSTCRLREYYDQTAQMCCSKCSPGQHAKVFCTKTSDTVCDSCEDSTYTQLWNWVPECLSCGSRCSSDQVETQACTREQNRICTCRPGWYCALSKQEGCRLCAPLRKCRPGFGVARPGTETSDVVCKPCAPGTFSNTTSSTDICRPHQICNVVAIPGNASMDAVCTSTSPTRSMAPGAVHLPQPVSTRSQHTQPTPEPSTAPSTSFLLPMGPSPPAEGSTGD
# T2: Human TNFR2-His (Sino 10417-H08H) (human, UniProt P20333 23-257)
# T2 construct: Bought protein; also called recombinant human TNFR2 protein; not shown: His tag
# T2 sequence (looked up): T1 sequence (looked up)
# T3: human TNFR2 on the surface of CHO-TNFR2 cells (human, UniProt P20333 23-461)
# T3 construct: whole, on cells
# T3 sequence (looked up): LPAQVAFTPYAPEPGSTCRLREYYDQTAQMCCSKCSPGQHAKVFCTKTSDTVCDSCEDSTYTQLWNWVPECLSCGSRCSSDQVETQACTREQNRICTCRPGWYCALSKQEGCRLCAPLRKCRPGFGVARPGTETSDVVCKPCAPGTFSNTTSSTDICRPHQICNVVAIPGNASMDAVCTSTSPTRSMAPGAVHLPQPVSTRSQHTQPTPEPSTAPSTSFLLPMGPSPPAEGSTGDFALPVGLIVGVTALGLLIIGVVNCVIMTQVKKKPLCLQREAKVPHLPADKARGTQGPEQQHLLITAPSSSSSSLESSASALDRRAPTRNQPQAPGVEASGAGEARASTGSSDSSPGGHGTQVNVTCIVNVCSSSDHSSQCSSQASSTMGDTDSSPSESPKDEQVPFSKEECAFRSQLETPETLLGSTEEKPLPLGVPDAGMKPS
# B1: 001-Hu5 (antibody, V domains shown)
# VH: EVQLVESGGGLVQPGGSLRLSCAASGFAFSTYDLSWVRQAPGKGLEWVAYINNGGISTYYSDTVKGRFTISRDNAKNTLYLQMNSLRAEDTAVYYCVRGPFYGSANYFDYWGQGTLVTVSS
# VL: DIQMTQSPSSLSASVGDRVTITCRTSESIYSNLPWYQQKPGKSPKLLVYDATKLAEGVPSRFSGSGSGTDYTLTISSLQPEDFATYYCQHFWVTPWTFGQGTKVEIK
# notes: Humanized form of #001; also called VH1 + VL4
# B2: 001-Hu1 (antibody, V domains shown)
# VH: B1 VH
# VL: B1 VL with S43A, V48L
# notes: Humanized form of #001; also called VH1 + VL1
# B3: 001-Hu2 (antibody, V domains shown)
# VH: B1 VH with T78S
# VL: B1 VL with V48I, Y71F
# notes: Humanized form of #001; also called VH2 + VL2
# B4: 001-Hu3 (antibody, V domains shown)
# VH: B1 VH
# VL: B1 VL with S43A, V48I
# notes: Humanized form of #001; also called VH1 + VL3
# B5: 001-Hu4 (antibody, V domains shown)
# VH: B1 VH with T78S
# VL: B1 VL
# notes: Humanized form of #001; also called VH2 + VL4
# B6: 219-Hu3 (antibody, V domains shown)
# VH: QVQLVQSGAEVKKPGSSVKVSCKASGYSFTNYWMNWVRQAPGQGLEWMGMIHPSDTETRLNQNFKDRVTITADKSTSTAYMELSSLRSEDTAVYYCARGEGLGAARSVSMDYWGQGTLVTVSS
# VL: DIQMTQSPSSLSASVGDRVTITCRASQDISNYLNWYQQKPDGTVKLLIYYTAILHSGVPSRFSGSGSGTDYSLTISSLQPEDFATYFCQQGNTLPWTFGQGTKVEIK
# notes: also called VH5 + VL5
# B7: 219-Hu1 (antibody, V domains shown)
# VH: B6 VH with S16A, G44R, A72R, K74T, T76A
# VL: B6 VL
# notes: also called VH3 + VL5
# B8: 219-Hu2 (antibody, V domains shown)
# VH: B6 VH with R67K, V68A
# VL: B6 VL
# notes: also called VH4 + VL5
# B9: 219-Hu4 (antibody, V domains shown)
# VH: B6 VH with R38K, M48I, R67K, V68A, I70L, A72V
# VL: B6 VL
# notes: also called VH6 + VL5
# B10: 219-Hu5 (antibody, V domains shown)
# VH: B6 VH with A72V
# VL: B6 VL
# notes: also called VH7 + VL5
# B11: 219-WT (antibody, V domains shown)
# VH: EVQLQESGAELVRPGASVKLSCKASGYSFTNYWMNWVKQRPGQGLEWIGMIHPSDTETRLNQNFKDKATLTVDKSSSTSYMQLSSPTSEDSAVYYCARGEGLGAARSVSMDYWGQGTTVTVSS
# VL: B6 VL with Q3L, V15L, T22S, L46V, S77N, Q79E, P80Q, F83I, Q100G, V104L
# notes: Human-murine chimeric wild-type molecule
# B12: 224-WT (antibody, V domains shown)
# VH: EVQLQESGPEIVKPGASVKLSCTASGFNNKDIYMHWVKQRPEQGLEWIGRIDPATGNTKHDPKFQDKATLSSDTSSNTAYLQFSSLTSEDTAVYYCAHSPYGDFGAMDYWGQGTTVTVSS
# VL: DIQMTQSPAIMSASLGERVTMTCTASSSVSSNYLHWYQQKPGSSPKLWIYSTSNLPSGVPARFSGSGSGTSYSLTISSMEAEDAATYYCHQYHRSPWTFGGGTKLEIK
# notes: Human-murine chimeric wild-type molecule; also called human-murine chimeric antibody WT of #224
# B13: 001-WT (antibody, V domains shown)
# VH: B1 VH with V5Q, R19N, A40T, G42E, G44R, N84S, R87K, A88S, V93M, L116T
# VL: EIVMTQSPASLSLSVGETVTITCRTSESIYSNLPWYQQKQGKSPQLLVYDATKLAEGVPSRFSGSESGTQYSLKINSLQSEDFGTYYCQHFWVTPWTFGGGTKLEIK
# notes: Human-murine chimeric wild-type molecule; also called human-murine chimeric antibody WT of #001
# Target: T1, human TNFR2 (Novoprotein, Cat #C830)
# Assay: competition ELISA, human TNFR2 coated, competitor human TNFα-Biotin
# Method: (§1) 1 μg/ml human TNFR2 (Novoprotein, Cat #C830) was pre-coated with 100 μl/well […] in an ELISA plate. All the test TNFR2 antibodies were subjected to 2.5-fold gradient dilution from the highest concentration of 30 μg/ml; the diluted antibodies were mixed with 15 ng/ml human TNFα-Biotin (Acro Biosystem, Cat #TNA-H82E3) in equal volume, respectively; the resulting mixture was added to the ELISA plate at 100 μl/well, and incubated with shaking at room temperature for 2.0 hours. The plate was washed, and then a Streptavidin-HRP working solution (diluted at 1:10000) was added at 100 μl/well, and the mixture was incubated with shaking at room temperature for 40 minutes. The plate was washed again, and then the substrate TMB of HRP was added to develop colour. A stop solution was added to stop the reaction, and then a microplate reader (MD 13) was used to read the absorbance value. The inhibitory curve of an antibody was drawn with antibody concentration as the abscissa and corresponding OD value as the ordinate, and fitted with four parameters (GraphPad Prism9) to calculate the IC50 value. The smaller the IC50 value, the stronger the ability of an antibody to inhibit the binding of human TNFα to human TNFR2. The blocking effect of a humanized antibody was normalized to its corresponding human-murine chimeric antibody WT. The higher the percentage value, the better the inhibitory effect of the humanized antibody.
row,Binder,IC50 [µg/mL]
1,B1,0.656
2,B2,0.573
3,B3,0.78
4,B4,0.597
5,B5,0.59
6,B6,0.545
7,B7,0.49
8,B8,0.472
9,B9,0.606
10,B10,0.578

# Target: T2, Human TNFR2-His (Sino 10417-H08H)
# Assay: SPR (Biacore T200), antibody captured on Protein A chip
# Method: Biacore was used to detect the specific binding of a test anti-TNFR2 antibody to human and cynomolgus monkey TNFR2 proteins. In this experiment, a Protein A chip was used, the time required for the chip to capture the diluted antibody was determined by manual run, so that the Rmax of the saturated binding to an antigen was 50 RU. […] The affinity of an antibody for an antigen was determined by using multi-cycle dynamics. In each cycle, an antibody was injected and then a TNFR2 protein at a gradient concentration was injected, so that the antigen and the antibody underwent binding and dissociation processes. After each cycle, the Protein A chip was regenerated with Glycine pH 1.5 (removing the protein on the chip). The affinity KD of an antibody and an antigen was fitted with BIAcore T200 analysis software.
Binder,Kd [pM],koff [s⁻¹],kon [M⁻¹ s⁻¹]
B11,554,0.000192,346000
B12,2330,0.000405,174000
B13,235,0.000121,512000
B1,416,0.000115,277000
B2,371,0.000108,291000
B3,496,0.000107,215000
B4,375,9.91e-05,265000
B5,417,0.000113,270000
B6,362,0.000146,403000
B7,354,0.000153,433000
B8,340,0.000151,443000
B9,318,0.000154,484000
B10,309,0.000137,445000

# Target: T1, human TNFR2 (Novoprotein, Cat #C830)
# Assay: competition ELISA, competitor human TNFα-Biotin; area under the OD curve
# Method: as §1
row,Binder,AUC
1,B1,8.02
2,B2,7.63
3,B3,8.1
4,B4,7.87
5,B5,7.86
6,B6,8.16
7,B7,7.92
8,B8,7.82
9,B9,7.66
10,B10,7.96

# Target: T3, human TNFR2 on the surface of CHO-TNFR2 …
# Assay: flow cytometry on CHO-TNFR2 cells; area under the MFI fold curve
# Method: The transfected full-length plasmid of human TNFR2 was purchased from Sino Biological (Cat #HG10417-UT, NCBI Ref Seq: NM_001066.2). The experiment was conducted at a cell density within 80%. The cell medium was discarded; the cells were rinsed with PBS, and digested with 1 ml trypsin for 2 minutes; the digestion was stopped with a Ham's F12 complete medium containing 10% FBS, and then a cell suspension was made. The cell suspension was counted, and then an appropriate amount of cell suspension was centrifuged at 350×g; the supernatant was discarded; a corresponding volume of blocking solution (10% FBS+PBS) at a density of 1×10⁷ cells/ml was added to resuspend the cells, and the mixture was incubated at 4° C. for 30 minutes. After the incubation, the mixture was centrifuged at 350×g to remove the supernatant, and the cells were resuspended in a staining buffer (2% FBS+PBS) to a density of 2×10⁶ cells/ml, and spread onto a 96-well plate, with 50 μl of cell suspension added to each well for later use. The antibody was diluted with PBS for 10-fold gradient dilution from the highest concentration of 20 μg/m (twice the concentration); the diluted antibody was added to the well containing 50 μl of cell suspension, and placed on a microplate shaker for shaking at 500 rpm for 1 minute, so that the antibody was fully mixed with the cells; the mixture was incubated at 4° C. for 1 h. After the incubation, the cells were washed twice with the staining buffer, with 100 μl per well, and centrifuged at 350-g for 5 minutes, and the supernatant was discarded. The PE goat anti-Human IgG Fc antibody (ebioscience, Cat #12-4998-82) was diluted 250-fold with the staining buffer, with a volume of 100 μl per well added to the washed cell wells; the mixture was mixed evenly, and stained at 4° C. for 30 minutes. After the staining, similarly, the cells were washed twice with the staining buffer; finally, the cells were resuspended in 200 μl of staining buffer; signals were detected by a flow cytometer (Thermo Attune NxT). The stronger the signal, the stronger the binding ability of an antibody to TNFR2. The binding curve of an antibody was drawn with antibody concentration as the abscissa and corresponding mean fluorescence intensity (MFI) fold as the ordinate, and fitted with four parameters (GraphPad Prism9) to calculate the EC50 value.
row,Binder,AUC
1,B11,516
2,B12,667
3,B13,490
4,B1,431
5,B2,458
6,B3,433
7,B4,431
8,B5,452
9,B6,497
10,B7,565
11,B8,534
12,B9,493
13,B10,481
